Measured values from paper PMC13391367.

What was measured:
UAP56 (10×His–3C–UAP56) = UAP56 (10×His–3C–UAP56) (UniProt Q13838)
[1] = target: LENG8–PS^M (10×His–MBP–LENG8^491–800, 3×V5–PCID2, SEM1) (human) (UniProt Q96PV6); assay: grating-coupled interferometry; V5-tagged LENG8–PS^M or SAC3D1–PS^M captured on an amine-coupled anti-V5 antibody (Creoptix WAVE, 4PCP chip); UAP56 injected as a 1:2 dilution series from 5 µM, with or without 200 µM 15U RNA, 25 mM HEPES pH 7.9, 50 mM KCl, 1 mM MgCl2, 1 mM TCEP, with and without 1 mM ATP, 25 °C; one-to-one model
[2] = target: SAC3D1–PS^M (10×His–MBP–SAC3D1^48–404, 3×V5–PCID2, SEM1) (human) (UniProt A6NKF1); assay: as above

UAP56 (10×His–3C–UAP56), sequence (Q13838 whole entry): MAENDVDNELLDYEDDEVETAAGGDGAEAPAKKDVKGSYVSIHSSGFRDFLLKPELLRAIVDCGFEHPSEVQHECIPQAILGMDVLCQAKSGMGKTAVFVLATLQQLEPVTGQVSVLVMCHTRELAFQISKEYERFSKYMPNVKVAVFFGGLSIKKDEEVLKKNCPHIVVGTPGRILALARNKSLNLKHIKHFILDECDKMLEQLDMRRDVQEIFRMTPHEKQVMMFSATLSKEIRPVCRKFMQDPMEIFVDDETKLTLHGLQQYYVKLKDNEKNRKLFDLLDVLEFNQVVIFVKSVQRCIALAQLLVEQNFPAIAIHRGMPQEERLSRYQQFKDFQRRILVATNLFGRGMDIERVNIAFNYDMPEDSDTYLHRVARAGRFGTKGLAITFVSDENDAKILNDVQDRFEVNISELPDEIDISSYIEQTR
UAP56(Δ1–43) (10×His–3C–UAP56(Δ1–43), residues 44–428), sequence (Q13838 44-428, stated change not applied): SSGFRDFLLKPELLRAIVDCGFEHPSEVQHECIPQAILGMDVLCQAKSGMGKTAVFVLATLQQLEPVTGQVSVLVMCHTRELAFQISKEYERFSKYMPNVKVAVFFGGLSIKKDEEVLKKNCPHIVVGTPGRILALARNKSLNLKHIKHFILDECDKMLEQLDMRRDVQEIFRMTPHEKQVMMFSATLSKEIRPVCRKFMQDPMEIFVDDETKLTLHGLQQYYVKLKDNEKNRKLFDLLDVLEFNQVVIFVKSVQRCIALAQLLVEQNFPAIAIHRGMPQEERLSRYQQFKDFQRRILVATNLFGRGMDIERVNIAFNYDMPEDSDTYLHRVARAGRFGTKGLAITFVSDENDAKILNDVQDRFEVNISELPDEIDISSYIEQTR

| Substance | fold stimulation of the apparent ATPase rate of UAP56 with RNA and ATP (NADH-coupled assay) (UAP56 (10×His–3C–UAP56)) [fold] | fold reduction of affinity against UAP56 [1] [fold] | fold reduction of affinity against UAP56 [2] [fold] |
| --- | --- | --- | --- |
| LENG8–PS^M (10×His–MBP–LENG8^491–800, 3×V5–PCID2, SEM1) (from UniProt Q96PV6 491-800; Q5JVF3 1-399; P60896 1-70) (complex) | 290 |  |  |
| SAC3D1–PS^M (10×His–MBP–SAC3D1^48–404, 3×V5–PCID2, SEM1) (from UniProt A6NKF1 48-404; Q5JVF3 1-399; P60896 1-70) (complex) | 60 |  |  |
| UAP56(Δ1–43) (10×His–3C–UAP56(Δ1–43), residues 44–428) (from UniProt Q13838 44-428) (domain or fragment) |  | > 30 | > 30 |
